Measurements: patent publication US20200299408A1 (Genentech, published 2020)

What was measured:
[1] = target: T1, single chain human CD3ε-26mer-CD3γ (CD3εγ) (human); test: Biacore full (multi-) cycle kinetics; reference of the ratio column
T1 construct: also called human CD3εγ
T1 chain: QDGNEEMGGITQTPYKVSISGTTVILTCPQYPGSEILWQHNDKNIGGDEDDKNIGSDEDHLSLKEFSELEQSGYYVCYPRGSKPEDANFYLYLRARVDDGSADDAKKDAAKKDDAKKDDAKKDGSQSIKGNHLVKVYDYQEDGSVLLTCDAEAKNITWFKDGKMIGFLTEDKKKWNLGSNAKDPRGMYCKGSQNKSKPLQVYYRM
Excerpt: (§1) In addition, position 95 in HVR-H3 was also mutated to serine, threonine, or glutamate. Variants with these single point mutations were expressed as Fabs in HEK293 cells and initially screened with a single cycle kinetics method on a Biacore T100. Selected variants were also scaled up and purified for a conventional multi-cycle kinetics method. For single cycle kinetics, Biacore Series S CM5 sensor chips were immobilized with anti-human Fab antibodies (Human Fab capture kit, GE Healthcare). […] For conventional multi-cycle kinetics, human CD3εγ, cyno CD3εγ, or a 27-mer peptide were immobilized on Biacore Series S CM5 sensor chip using the amine coupling kit from Biacore. Serial 3-fold dilutions of each Fab variant were injected at a flow rate of 30 μl/min. Each sample was analyzed with a protocol of 3-minute association and 3-minute dissociation. In both methods, the Biacore chips were regenerated using 10 mM Glycine (pH 1.7). Binding response was corrected by blank subtraction and a 1:1Languir model of simultaneous fitting of kₒₙ and koff was used for kinetics analysis.

[2] = target: T1, single chain human CD3ε-26mer-CD3γ …; test: monovalent binding affinity, method not stated on the sheet; column huCD3εγ
[3] = target: T1, single chain human CD3ε-26mer-CD3γ …; test: Biacore full (multi-) cycle kinetics: antigen on chip, Fab injected; antigen not named on the sheet, taken as human CD3εγ
Excerpt: as §1

[4] = target: T1, single chain human CD3ε-26mer-CD3γ …; test: SPR (Biacore 4000): CD3εγ (row WT) captured from the periplasmic fraction on UCHT1v9; analyte a bispecific antibody with one 38E4v1 arm and one irrelevant arm, 0.39-100 nM
Experimental: The secreted CD3εγ variants were captured from the crude periplasmic fraction using anti-CD3 antibody UCHT1v9. UCHT1v9 was immobilized on a CM5 serios S chip through amine coupling using the anti-human IgG (Fc) antibody capture kit (BR-1008-39) from GE Healthcare. SPR measurements were performed on the Biacore 4000 instrument, utilizing kinetic evaluation software. In order to measure monovalent binding affinities, anti-CD3 bispecific antibodies were used in which one arm was the anti-CD3 to be tested and the arm recognized an irrelevant antigen. The bispecific anti-CD3 antibodies were passed over the captured supernatant in a concentration series of two-fold dilutions from 0.39 to 100 nM. The resulting kinetics (FIG. 13D) were measured and calculated using Biacore 4000 BIAevaluation software (product code 28-9664-57).

B1: hu38E4.v1 Fab (Fab, V domains shown)
VH: EVQLVQSGAEVKKPGASVKVSCKASGFTFTSYYIHWVRQAPGQGLEWIGWIYPENDNTKYNEKFKDRVTITADTSTSTAYLELSSLRSEDTAVYYCARDGYSRYYFDYWGQGTLVTVSS
VL: DIVMTQSPDSLAVSLGERATINCKSSQSLLNSRTRKNYLAWYQQKPGQSPKLLIYWTSTRKSGVPDRFSGSGSGTDFTLTISSLQAEDVAVYYCKQSFILRTFGQGTKVEIK
notes: Humanized anti-CD3 Fab; Point mutants of it were expressed as Fabs in HEK293 cells
ratio (fold) [1]: 1 fold | Kd [2]: 0.5 nM | Kd [3]: 0.8 nM | koff [3]: 0.00433 s⁻¹ | kon [3]: 5.44e+06 M⁻¹ s⁻¹ | Kd [4]: 3 nM
